Data as given in the supplement of paper PMC5998384.

Key:
[1] = test system: HeLa Kyoto; experiment: thermal stability score vs G1/S (z-score of summed log2 fold changes over temperatures); higher = more thermally stable than in G1/S
[2] = test system: HeLa Kyoto; experiment: solubility in G1/S (NP-40 vs SDS abundance) (log2 ratio); higher = more soluble; details: cell cycle stage: G1/S
[3] = test system: HeLa Kyoto; experiment: melting temperature (median over replicates), in situ; higher = more thermally stable
[4] = test system: HeLa Kyoto; experiment: solubility change mitosis vs G1/S (difference of NP-40 vs SDS log2 ratios) (log2 ratio difference); higher = more soluble in mitosis
[5] = cell cycle stage: early G1 (4.5 h after nocodazole release)
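For melting temperature (median over replicates), in situ in this document: HeLa Kyoto cells synchronized by double thymidine or nocodazole block, proteins quantified by TMT10plex mass spectrometry, three independent biological replicates.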
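For solubility change mitosis vs G1/S (difference of NP-40 vs SDS log2 ratios) in this document: synchronized HeLa Kyoto cells (double thymidine block for G1/S, nocodazole release for mitosis), protein amounts in NP-40 versus SDS lysates quantified by mass spectrometry, three biological replicates.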
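For solubility in G1/S (NP-40 vs SDS abundance) in this document: HeLa Kyoto cells arrested at G1/S by double thymidine block, proteins quantified by TMT10plex mass spectrometry in mild NP-40 versus SDS extracts, three biological replicates.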
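For thermal stability score vs G1/S (z-score of summed log2 fold changes over temperatures) in this document: synchronized HeLa Kyoto cells, proteins quantified by TMT10plex mass spectrometry, three biological replicates, mitosis taken 0.5 h after nocodazole release, G1/S directly after double thymidine block.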

Substance | thermal stability score [1, 5] | thermal stability score ([1]; cell cycle stage: mitosis) | solubility in G1/S (log2) [2] | melting temperature ([3]; cell cycle stage: G1/S) [°C] | melting temperature ([3]; cell cycle stage: mitosis) [°C] | solubility change mitosis (log2) [4]
MAQVAMSTLPVEDEESSESRMVVTFLMSALESMCKELAKSKAEVACIAVYETDVFVVGTERGRAFVNTRKDFQKDFVKYCVEEEEKAAEMHKMKSTTQANRMSVDAVEIETLRKTVEDYFCFCYGKALGKSTVVPVPYEKMLRDQSAVVVQGLPEGVAFKHPENYDLATLKWILENKAGISFIIKRPFLEPKKHVGGRVMVTDADRSILSPGGSCGPIKVKTEPTEDSGISLEMAAVTVKEESEDPDYYQYNIQAGPSETDDVDEKQPLSKPLQGSHHSSEGNEGTEMEVPAEDSTQHVPSETSEDPEVEVTIEDDDYSPPSKRPKANELPQPPVPEPANAGKRKVREFNFEKWNARITDLRKQVEELFERKYAQAIKAKGPVTIPYPLFQSHVEDLYVEGLPEGIPFRRPSTYGIPRLERILLAKERIRFVIKKHELLNSTREDLQLDKPASGVKEEWYARITKLRKMVDQLFCKKFAEALGSTEAKAVPYQKFEAHPNDLYVEGLPENIPFRSPSWYGIPRLEKIIQVGNRIKFVIKRPELLTHSTTEVTQPRTNTPVKEDWNVRITKLRKQVEEIFNLKFAQALGLTEAVKVPYPVFESNPEFLYVEGLPEGIPFRSPTWFGIPRLERIVRGSNKIKFVVKKPELVISYLPPGMASKINTKALQSPKRPRSPGSNSKVPEIEVTVEGPNNNNPQTSAVRTPTQTNGSNVPFKPRGREFSFEAWNAKITDLKQKVENLFNEKCGEALGLKQAVKVPFALFESFPEDFYVEGLPEGVPFRRPSTFGIPRLEKILRNKAKIKFIIKKPEMFETAIKESTSSKSPPRKINSSPNVNTTASGVEDLNIIQVTIPDDDNERLSKVEKARQLREQVNDLFSRKFGEAIGMGFPVKVPYRKITINPGCVVVDGMPPGVSFKAPSYLEISSMRRILDSAEFIKFTVIRPFPGLVINNQLVDQSESEGPVIQESAEPSQLEVPATEEIKETDGSSQIKQEPDPTW [GTF2I] | 6.54 | 16.3 | 0.0586 | 45.4 | 48.5 | 0.0472
MTSLYGRHAEKTTDMPKPSAPKVHVQRSVSRDTIAIHFSASGEEEEEEEEEFREYFEEGLDDQSIVTGLEAKEDLYLEPQVGHDPAGPAASPVLADGLSVSQAPAILPVSKNTVKLLESPVPAAQVLSTVPLAVSPGSSSSGPLASSPSVSSLSEQKTSSSSPLSSPSKSPILSSSASTSTLSSAKPFMSLVKSLSTEVEPKESPHPARHRHLMKTLVKSLSTDTSRQESDTVSYKPPDSKLNLHLFKQFTQPRNTGGDSKTAPSSPLTSPSDTRSFFKVPEMEAKIEDTKRRLSEVIYEPFQLLSKIIGEESGSHRPKALSSSASELSNLSSLNGHLESNNNYSIKEEECDSEGDGYGSDSNIPRSDHPKSTGEPTREIELKSSQGSSLKDLGLKTSSLVLEKCSLSALVSKEDEEFCELYTEDFDLETEGESKVDKLSDIPLKPEVLAEDGVVLDSEDEVDSAVQHPELPVKTLGFFIMCVYVYLILPLPHYVSGLFLGIGLGFMTAVCVIWFFTPPSAHKYHKLHKNLRHWNTRSLDIKEPEILKGWMNEIYNYDPETYHATLTHSVFVRLEGGTLRLSKPNKNISRRASYNEPKPEVTYISQKIYDLSDSKIYLVPKTLARKRIWNKKYPICIELGQQDDFMSKAQTDKETSEEKPPAEGSEDPKKPPRPQEGTRSSQRDQILYLFGRTGREKEEWFRRFILASKLKSEIKKSSGVSGGKPGLLPAHSRHNSPSGHLTHSRSSSKGSVEEIMSQPKQKELAGSVRQKMLLDYSVYMGRCVPQESRSPQRSPLQSAESSPTAGKKLPEVPPSEEEEQEAWVNALLGRIFWDFLGEKYWSDLVSKKIQMKLSKIKLPYFMNELTLTELDMGVAVPKILQAFKPYVDHQGLWIDLEMSYNGSFLMTLETKMNLTKLGKEPLVEALKVGEIGKEGCRPRAFCLADSDEESSSAGSSEEDDAPEPSGGDKQLLPGAEGYVGGHRTSKIMRFVDKITKSKYFQKATETEFIKKKIEEVSNTPLLLTVEVQECRGTLAVNIPPPPTDRVWYGFRKPPHVELKARPKLGEREVTLVHVTDWIEKKLEQEFQKVFVMPNMDDVYITIMHSAMDPRSTSCLLKDPPVEAADQP [TEX2] | -0.212 | -0.23 | -0.062 | 50.1 | 50.4 | -0.118
MHPRRPDGFDGLGYRGGARDEQGFGGAFPARSFSTGSDLGHWVTTPPDIPGSRNLHWGEKSPPYGVPTTSTPYEGPTEEPFSSGGGGSVQGQSSEQLNRFAGFGIGLASLFTENVLAHPCIVLRRQCQVNYHAQHYHLTPFTVINIMYSFNKTQGPRALWKGMGSTFIVQGVTLGAEGIISEFTPLPREVLHKWSPKQIGEHLLLKSLTYVVAMPFYSASLIETVQSEIIRDNTGILECVKEGIGRVIGMGVPHSKRLLPLLSLIFPTVLHGVLHYIISSVIQKFVLLILKRKTYNSHLAESTSPVQSMLDAYFPELIANFAASLCSDVILYPLETVLHRLHIQGTRTIIDNTDLGYEVLPINTQYEGMRDCINTIRQEEGVFGFYKGFGAVIIQYTLHAAVLQITKIIYSTLLQNNI [SLC25A46] | -2.69 | -1.76 | 0.0119 | 54.2 | 53.8 | -0.0414
WBSCR16 | 0.481 | -0.564 | -0.259 | 53.6 | 52.7 | -0.168
MSKLKVIPEKSLTNNSRIVGLLAQLEKINAEPSESDTARYVTSKILHLAQSQEKTRREMTAKGSTGMEILLSTLENTKDLQTTLNILSILVELVSAGGGRRVSFLVTKGGSQILLQLLMNASKESPPHEDLMVQIHSILAKIGPKDKKFGVKARINGALNITLNLVKQNLQNHRLVLPCLQLLRVYSANSVNSVSLGKNGVVELMFKIIGPFSKKNSSLIKVALDTLAALLKSKTNARRAVDRGYVQVLLTIYVDWHRHDNRHRNMLIRKGILQSLKSVTNIKLGRKAFIDANGMKILYNTSQECLAVRTLDPLVNTSSLIMRKCFPKNRLPLPTIKSSFHFQLPVIPVTGPVAQLYSLPPEVDDVVDESDDNDDIDVEAENETENEDDLDQNFKNDDIETDINKLKPQQEPGRTIEDLKMYEHLFPELVDDFQDYDLISKEPKPFVFEGKVRGPIVVPTAGEETSGNSGNLRKVVMKENISSKGDEGEKKSTFMDLAKEDIKDNDRTLQQQPGDQNRTISSVHGLNNDIVKALDRITLQNIPSQTAPGFTAEMKKDCSLPLTVLTCAKACPHMATCGNVLFEGRTVQLGKLCCTGVETEDDEDTESNSSVEQASVEVPDGPTLHDPDLYIEIVKNTKSVPEYSEVAYPDYFGHIPPPFKEPILERPYGVQRTKIAQDIERLIHQSDIIDRVVYDLDNPNYTIPEEGDILKFNSKFESGNLRKVIQIRKNEYDLILNSDINSNHYHQWFYFEVSGMRPGVAYRFNIINCEKSNSQFNYGMQPLMYSVQEALNARPWWIRMGTDICYYKNHFSRSSVAAGGQKGKSYYTITFTVNFPHKDDVCYFAYHYPYTYSTLQMHLQKLESAHNPQQIYFRKDVLCETLSGNSCPLVTITAMPESNYYEHICHFRNRPYVFLSARVHPGETNASWVMKGTLEYLMSNNPTAQSLRESYIFKIVPMLNPDGVINGNHRCSLSGEDLNRQWQSPSPDLHPTIYHAKGLLQYLAAVKRLPLVYCDYHGHSRKKNVFMYGCSIKETVWHTNDNATSCDVVEDTGYRTLPKILSHIAPAFCMSSCSFVVEKSKESTARVVVWREIGVQRSYTMESTLCGCDQGKYKGLQIGTRELEEMGAKFCVGLLRLKRLTSPLEYNLPSSLLDFENDLIESSCKVTSPTTYVLDEDEPRFLEEVDYSAESNDELDIELAENVGDYEPSAQEEVLSDSELSRTYLP [AGTPBP1] | -0.000956 | 0.14 | -0.204 | 50.2 | 50.3 | -0.0731
MSLLQSALDFLAGPGSLGGASGRDQSDFVGQTVELGELRLRVRRVLAEGGFAFVYEAQDVGSGREYALKRLLSNEEEKNRAIIQEVCFMKKLSGHPNIVQFCSAASIGKEESDTGQAEFLLLTELCKGQLVEFLKKMESRGPLSCDTVLKIFYQTCRAVQHMHRQKPPIIHRDLKVENLLLSNQGTIKLCDFGSATTISHYPDYSWSAQRRALVEEEITRNTTPMYRTPEIIDLYSNFPIGEKQDIWALGCILYLLCFRQHPFEDGAKLRIVNGKYSIPPHDTQYTVFHSLIRAMLQVNPEERLSIAEVVHQLQEIAAARNVNPKSPITELLEQNGGYGSATLSRGPPPPVGPAGSGYSGGLALAEYDQPYGGFLDILRGGTERLFTNLKDTSSKVIQSVANYAKGDLDISYITSRIAVMSFPAEGVESALKNNIEDVRLFLDSKHPGHYAVYNLSPRTYRPSRFHNRVSECGWAARRAPHLHTLYNICRNMHAWLRQDHKNVCVVHCMDGRAASAVAVCSFLCFCRLFSTAEAAVYMFSMKRCPPGIWPSHKRYIEYMCDMVAEEPITPHSKPILVRAVVMTPVPLFSKQRSGCRPFCEVYVGDERVASTSQEYDKMRDFKIEDGKAVIPLGVTVQGDVLIVIYHARSTLGGRLQAKMASMKMFQIQFHTGFVPRNATTVKFAKYDLDACDIQEKYPDLFQVNLEVEVEPRDRPSREAPPWENSSMRGLNPKILFSSREEQQDILSKFGKPELPRQPGSTAQYDAGAGSPEAEPTDSDSPPSSSADASRFLHTLDWQEEKEAETGAENASSKESESALMEDRDESEVSDEGGSPISSEGQEPRADPEPPGLAAGLVQQDLVFEVETPAVLPEPVPQEDGVDLLGLHSEVGAGPAVPPQACKAPSSNTDLLSCLLGPPEAASQGPPEDLLSEDPLLLASPAPPLSVQSTPRGGPPAAADPFGPLLPSSGNNSQPCSNPDLFGEFLNSDSVTVPPSFPSAHSAPPPSCSADFLHLGDLPGEPSKMTASSSNPDLLGGWAAWTETAASAVAPTPATEGPLFSPGGQPAPCGSQASWTKSQNPDPFADLGDLSSGLQGSPAGFPPGGFIPKTATTPKGSSSWQTSRPPAQGASWPPQAKPPPKACTQPRPNYASNFSVIGAREERGVRAPSFAQKPKVSENDFEDLLSNQGFSSRSDKKGPKTIAEMRKQDLAKDTDPLKLKLLDWIEGKERNIRALLSTLHTVLWDGESRWTPVGMADLVAPEQVKKHYRRAVLAVHPDKAAGQPYEQHAKMIFMELNDAWSEFENQGSRPLF | 0.76 | 1.62 | -0.0682 | 48.6 | 48.9 | -0.151
PACS1 | -0.425 | 0.437 | 0.119 | 50.8 | 51.4 | -0.211
MAAKVFESIGKFGLALAVAGGVVNSALYNVDAGHRAVIFDRFRGVQDIVVGEGTHFLIPWVQKPIIFDCRSRPRNVPVITGSKDLQNVNITLRILFRPVASQLPRIFTSIGEDYDERVLPSITTEILKSVVARFDAGELITQRELVSRQVSDDLTERAATFGLILDDVSLTHLTFGKEFTEAVEAKQVAQQEAERARFVVEKAEQQKKAAIISAEGDSKAAELIANSLATAGDGLIELRKLEAAEDIAYQLSRSRNITYLPAGQSVLLQLPQ [PHB] | -1.45 | -2.71 | -0.137 | 59.5 | 58.1 | -0.0774
MDDDDFGGFEAAETFDGGSGETQTTSPAIPWAAFPAVSGVHLSPSSPEIVLDRDHSSSIGCLSSDAIISSPENTHAANSIVSQTIPKAQIQQSTHTHLDISLFPLGLTDEKSNGTIALVDDSEDPGANVSNIQLQQKISSLEIKLKVSEEEKQRIKQDVESLMEKHNVLEKGFLKEKEQEAISFQDRYKELQEKHKQELEDMRKAGHEALSIIVDEYKALLQSSVKQQVEAIEKQYISAIEKQAHKCEELLNAQHQRLLEMLDTEKELLKEKIKEALIQQSQEQKEILEKCLEEERQRNKEALVSAAKLEKEAVKDAVLKVVEEERKNLEKAHAEERELWKTEHAKDQEKVSQEIQKAIQEQRKISQETVKAAIIEEQKRSEKAVEEAVKRTRDELIEYIKEQKRLDQVIRQRSLSSLELFLSCAQKQLSALIATEPVDIE [CCDC91] | -0.397 | -0.35 | 0.348 | 53 | 52.1 | -0.0653
